{
  "source": "patent US20130149236A1",
  "about": "(MacroGenics, published 2013)",
  "binders": {"B1": {"name": "BRCA84D (antibody, IgG1, V domains shown)", "VH": "DVQLVESGGGLVQPGGSRKLSCAASGFTFSSFGMHWVRQAPEKGLEWVAYISSDSSAIYYADTVKGRFTISRDNPKNTLFLQMTSLRSEDTAMYYCGRGRENIYYGSRLDYWGQGTTLTVSS", "VL": "DIAMTQSQKFMSTSVGDRVSVTCKASQNVDTNVAWYQQKPGQSPKALIYSASYRYSGVPDRFTGSGSGTDFTLTINNVQSEDLAEYFCQQYNNYPFTFGSGTKLEIK", "notes": "murine mAb, IgG1/k; fluorescein-labeled in the FACS MFI columns"}, "B2": {"name": "PRCA157 (antibody, IgG1, V domains shown)", "VH": "EVQQVESGGDLVKPGGSLKLSCAASGFTFSSYGMSWVRQTPDKRLEWVATINSGGSNTYYPDSLKGRFTISRDNAKNTLYLQMRSLKSEDTAMYYCARHDGGAMDYWGQGTSVTVSS", "VL": "DIQMTQSPASLSVSVGETVTITCRASESIYSYLAWYQQKQGKSPQLLVYNTKTLPEGVPSRFSGSGSGTQFSLKINSLQPEDFGRYYCQHHYGTPPWTFGGGTNLEIK", "notes": "murine mAb, IgG1/k"}},
  "key": {"soluble B7H3-2Ig": {"target": "T1, soluble B7H3-2Ig (human, UniProt Q5ZPR3 29-466)", "T1 construct": "Soluble or immobilized 2Ig form; also called 2Ig-B7-H3; B7-H3 (2Ig form)", "T1 sequence": "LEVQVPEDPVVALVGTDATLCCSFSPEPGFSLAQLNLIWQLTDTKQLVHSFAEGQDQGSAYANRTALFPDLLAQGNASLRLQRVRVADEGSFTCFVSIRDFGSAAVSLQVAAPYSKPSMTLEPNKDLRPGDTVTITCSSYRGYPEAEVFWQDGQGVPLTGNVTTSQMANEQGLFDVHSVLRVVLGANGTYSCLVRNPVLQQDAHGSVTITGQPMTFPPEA", "experiment": "Specificity"}, "soluble B7H3-4Ig": {"target": "T2, soluble B7H3-4Ig (human, UniProt Q5ZPR3 29-466)", "T2 construct": "Soluble or immobilized 4Ig form; also called 4Ig-B7-H3", "T2 sequence": "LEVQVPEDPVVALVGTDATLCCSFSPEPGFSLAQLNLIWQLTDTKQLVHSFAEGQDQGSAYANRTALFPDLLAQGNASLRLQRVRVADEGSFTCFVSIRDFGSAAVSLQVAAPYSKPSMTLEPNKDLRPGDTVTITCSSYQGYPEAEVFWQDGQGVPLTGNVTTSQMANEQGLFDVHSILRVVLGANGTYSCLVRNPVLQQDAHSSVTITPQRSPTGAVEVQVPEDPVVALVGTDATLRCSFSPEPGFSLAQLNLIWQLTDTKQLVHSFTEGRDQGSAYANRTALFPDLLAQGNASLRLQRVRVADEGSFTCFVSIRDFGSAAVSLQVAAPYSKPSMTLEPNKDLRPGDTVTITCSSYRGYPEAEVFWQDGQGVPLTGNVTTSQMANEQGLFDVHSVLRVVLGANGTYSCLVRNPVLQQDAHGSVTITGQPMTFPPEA", "experiment": "Specificity"}},
  "data": [
    {"binder": "B1", "values": [
      {"measurement": "binding result", "setting": "soluble B7H3-2Ig", "value": "binds"},
      {"measurement": "binding result", "setting": "soluble B7H3-4Ig", "value": "binds"}
    ]},
    {"binder": "B2", "values": [
      {"measurement": "binding result", "setting": "soluble B7H3-2Ig", "value": "binds"},
      {"measurement": "binding result", "setting": "soluble B7H3-4Ig", "value": "binds"}
    ]}
  ]
}
